The supplement of paper PMC9112550, “Optimization of the antimicrobial peptide Bac7 by deep mutational scanning” (BMC Biology, 2022)

Tested on: Escherichia coli TOP10
Assay: shrunken log2 fold change of peptide-encoding DNA abundance (4.5 h post-induction vs induction); higher = less antimicrobial activity (less host growth inhibition)
Conditions: time post-induction: 4.5 h; library: site-saturation at positions 5, 18, 19, 20
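Note: peptides expressed intracellularly from a pBAD plasmid library in pooled LB shake-flask culture, induced with 0.3% L-arabinose, DNA abundance read by NGS, three biological replicates, DESeq2 with apeglm shrinkage.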

Row | Sequence | shrunken log2 fold change
1 | RRIRIRPPRLPRPRPRPGQEPRP | -0.00674
2 | RRIRRRPPRLPRPRPRPDAQPRP | 0.471
3 | RRIRLRPPRLPRPRPRPDEYPRP | -0.000921
4 | RRIRFRPPRLPRPRPRPALRPRP | 0.276
5 | RRIRHRPPRLPRPRPRPDIKPRP | -0.559
6 | RRIRARPPRLPRPRPRPAHGPRP | 0.694
7 | RRIRLRPPRLPRPRPRPGNCPRP | -0.0913
8 | RRIRKRPPRLPRPRPRPSVKPRP | -0.358
9 | RRIRRRPPRLPRPRPRPINTPRP | -0.364
10 | RRIRFRPPRLPRPRPRPSMFPRP | -0.505
11 | RRIRMRPPRLPRPRPRPDYRPRP | -0.146
12 | RRIRERPPRLPRPRPRPQINPRP | -0.586
13 | RRIRYRPPRLPRPRPRPKLQPRP | 0.124
14 | RRIRNRPPRLPRPRPRPYESPRP | -0.829
15 | RRIRPRPPRLPRPRPRPIPCPRP | -0.172
16 | RRIRRRPPRLPRPRPRPHILPRP | -0.68
17 | RRIRRRPPRLPRPRPRPDYYPRP | -0.0675
18 | RRIRMRPPRLPRPRPRPPSDPRP | 1.06
19 | RRIRQRPPRLPRPRPRPIDFPRP | -0.0381
20 | RRIRARPPRLPRPRPRPYWSPRP | -0.186
21 | RRIRMRPPRLPRPRPRPCCEPRP | 0.192
22 | RRIRARPPRLPRPRPRPDDEPRP | 1.43
23 | RRIRSRPPRLPRPRPRPGENPRP | 0.894
24 | RRIRSRPPRLPRPRPRPPNSPRP | -0.251
25 | RRIRWRPPRLPRPRPRPEPMPRP | 0.38

Row | Sequence | shrunken log2 fold change
26 | RRIRHRPPRLPRPRPRPCAPPRP | 0.0642
27 | RRIRIRPPRLPRPRPRPEQRPRP | -0.0838
28 | RRIRYRPPRLPRPRPRPGMKPRP | -0.067
29 | RRIRCRPPRLPRPRPRPGNAPRP | 0.185
30 | RRIRLRPPRLPRPRPRPGNLPRP | -0.137
31 | RRIRHRPPRLPRPRPRPKLMPRP | 0.165
32 | RRIRGRPPRLPRPRPRPIMEPRP | 0.229
33 | RRIRPRPPRLPRPRPRPYGQPRP | -0.169
34 | RRIRTRPPRLPRPRPRPFHHPRP | -0.775
35 | RRIRQRPPRLPRPRPRPKSGPRP | 0.631
36 | RRIRERPPRLPRPRPRPRRSPRP | -0.021
37 | RRIRIRPPRLPRPRPRPDFTPRP | -0.355
38 | RRIRLRPPRLPRPRPRPHYFPRP | -0.404
39 | RRIRHRPPRLPRPRPRPEPQPRP | 0.39
40 | RRIRHRPPRLPRPRPRPGTFPRP | -0.132
41 | RRIRPRPPRLPRPRPRPCWVPRP | 0.143
42 | RRIRERPPRLPRPRPRPSHDPRP | -0.118
43 | RRIRHRPPRLPRPRPRPEYGPRP | -0.0913
44 | RRIRARPPRLPRPRPRPWWAPRP | 0.289
45 | RRIRVRPPRLPRPRPRPQILPRP | -0.451
46 | RRIRHRPPRLPRPRPRPGMGPRP | 0.0516
47 | RRIRYRPPRLPRPRPRPGGNPRP | -0.0562
48 | RRIRGRPPRLPRPRPRPCCLPRP | 0.429
49 | RRIRTRPPRLPRPRPRPHTGPRP | -0.34
50 | RRIRDRPPRLPRPRPRPSDGPRP | 0.166

Row | Sequence | shrunken log2 fold change
51 | RRIRFRPPRLPRPRPRPGPSPRP | 0.764
52 | RRIRKRPPRLPRPRPRPLECPRP | -0.00691
53 | RRIRERPPRLPRPRPRPLNLPRP | -0.312
54 | RRIRYRPPRLPRPRPRPCLGPRP | -0.231
55 | RRIRTRPPRLPRPRPRPPFYPRP | -0.0308
56 | RRIRFRPPRLPRPRPRPSITPRP | -0.262
57 | RRIRYRPPRLPRPRPRPHDLPRP | -0.00151
58 | RRIRQRPPRLPRPRPRPQYIPRP | -0.0838
59 | RRIRGRPPRLPRPRPRPIWIPRP | 0.0517
60 | RRIRIRPPRLPRPRPRPWEQPRP | 0.107
61 | RRIRLRPPRLPRPRPRPQYIPRP | -0.189
62 | RRIRKRPPRLPRPRPRPDVVPRP | -0.0061
63 | RRIRERPPRLPRPRPRPCMGPRP | -0.0551
64 | RRIRNRPPRLPRPRPRPPNIPRP | -0.226
65 | RRIRMRPPRLPRPRPRPQKRPRP | 0.489
66 | RRIRIRPPRLPRPRPRPRWIPRP | -0.0611
67 | RRIRLRPPRLPRPRPRPPHMPRP | -0.0106
68 | RRIRRRPPRLPRPRPRPFTKPRP | -0.221
69 | RRIRERPPRLPRPRPRPPAWPRP | 0.0898
70 | RRIRFRPPRLPRPRPRPDKYPRP | -1.65
71 | RRIRGRPPRLPRPRPRPGDLPRP | 2.41
72 | RRIRKRPPRLPRPRPRPEEFPRP | 0.227
73 | RRIRTRPPRLPRPRPRPRCCPRP | 0.0734
74 | RRIRCRPPRLPRPRPRPQCTPRP | -0.654
75 | RRIRLRPPRLPRPRPRPCGVPRP | -0.339

Row | Sequence | shrunken log2 fold change
76 | RRIRARPPRLPRPRPRPGWTPRP | 0.525
77 | RRIRNRPPRLPRPRPRPYRPPRP | -0.379
78 | RRIRGRPPRLPRPRPRPFKSPRP | 0.08
79 | RRIRQRPPRLPRPRPRPAFIPRP | -0.239
80 | RRIRSRPPRLPRPRPRPLVFPRP | -0.0421
81 | RRIRWRPPRLPRPRPRPSEDPRP | 0.145
82 | RRIRVRPPRLPRPRPRPYLNPRP | -0.16
83 | RRIRKRPPRLPRPRPRPAENPRP | 0.0163
84 | RRIRKRPPRLPRPRPRPCDHPRP | 0.0248
85 | RRIRPRPPRLPRPRPRPYIKPRP | -0.939
86 | RRIRMRPPRLPRPRPRPPLQPRP | 0.661
87 | RRIRSRPPRLPRPRPRPHAFPRP | -1.44
88 | RRIRIRPPRLPRPRPRPLFQPRP | -0.394
89 | RRIRHRPPRLPRPRPRPWLSPRP | -0.0373
90 | RRIRGRPPRLPRPRPRPSTRPRP | 0.114
91 | RRIRLRPPRLPRPRPRPWTGPRP | -0.0428
92 | RRIRFRPPRLPRPRPRPLIYPRP | -0.898
93 | RRIRTRPPRLPRPRPRPHIIPRP | -0.0938
94 | RRIRGRPPRLPRPRPRPWFSPRP | -0.246
95 | RRIRMRPPRLPRPRPRPPHHPRP | 0.527
96 | RRIRERPPRLPRPRPRPNFAPRP | 0.387
97 | RRIRWRPPRLPRPRPRPHNTPRP | -0.391
98 | RRIRGRPPRLPRPRPRPNFKPRP | 0.142
99 | RRIRFRPPRLPRPRPRPMRQPRP | 0.0953
100 | RRIRTRPPRLPRPRPRPDYYPRP | -0.356

Row | Sequence | shrunken log2 fold change
101 | RRIRARPPRLPRPRPRPFPRPRP | 0.0695
102 | RRIRCRPPRLPRPRPRPSKQPRP | -0.209
103 | RRIRCRPPRLPRPRPRPADDPRP | 0.116
104 | RRIRKRPPRLPRPRPRPTPDPRP | 0.559
105 | RRIRCRPPRLPRPRPRPPPVPRP | 1.24
106 | RRIRDRPPRLPRPRPRPQHTPRP | -0.403
107 | RRIRNRPPRLPRPRPRPNYNPRP | -1.07
108 | RRIRDRPPRLPRPRPRPHEFPRP | 0.00812
109 | RRIRDRPPRLPRPRPRPQENPRP | 0.0153
110 | RRIRWRPPRLPRPRPRPTYYPRP | -0.463
111 | RRIRVRPPRLPRPRPRPSYIPRP | -0.74
112 | RRIRVRPPRLPRPRPRPKWGPRP | 0.155
113 | RRIRKRPPRLPRPRPRPVYDPRP | 0.0473
114 | RRIRRRPPRLPRPRPRPVMTPRP | 0.573
115 | RRIRQRPPRLPRPRPRPHQVPRP | -0.253
116 | RRIRPRPPRLPRPRPRPVKTPRP | 0.0289
117 | RRIRLRPPRLPRPRPRPSGEPRP | 0.0911
118 | RRIRVRPPRLPRPRPRPSIRPRP | -0.285
119 | RRIRARPPRLPRPRPRPIMIPRP | -0.261
120 | RRIRGRPPRLPRPRPRPNKTPRP | -0.0264
121 | RRIRIRPPRLPRPRPRPPPVPRP | 0.414
122 | RRIRARPPRLPRPRPRPCYMPRP | -0.0886
123 | RRIRIRPPRLPRPRPRPMTYPRP | -0.0592
124 | RRIRLRPPRLPRPRPRPLLAPRP | 0.188
125 | RRIRERPPRLPRPRPRPAMVPRP | 0.037
